Data taken from the Human Domainome abundance scans (Beltran et al. 2025).

B1: Cullin-9, residues 2234 to 2275; numbered along this chain, Q8IWT3 (parent)
chain: KRCPSCQAPIEKNEGCLHMTCAKCNHGFCWRCLKSWKPNHKD

Variants of: B1
Assay: abundance fitness (aPCA) (normalised: wild type 0, dead -1); higher = more abundant; growth selection in yeast, the domain comes from the species named
Conditions: Homo sapiens

Abundance fitness, by site and new letter:
R31: A -0.026; F -0.258; T 0.03; W -0.025; P -0.17; I -0.072; E 0.162; Y 0.212; H 0.078; N 0.17; K 0.371; S -0.065; G 0.128; Q 0.208; V 0.128; D 0.119; C 0.055
S35: H -0.373; N -0.092; L 0.078; K -0.155; C -0.195; E 0.17; M 0.037; A 0.049; I -0.438; D 0.003; F 0.187; Y -0.463; P 0.446; T 0.044; Q 0.068; V -0.132; W -0.23; R -0.356
W36: Q 0.082; V 0.304; A 0.029; T 0.147; S 0.118; G -0.026; L 0.205; K 0.13; C -0.391; F -0.194; P 0.067; D 0.255; Y -0.17; H -0.015; R -0.25; N -0.355
K34: T -0.313; W -0.765; M -0.374; P -0.363; Q -0.128; H -0.252; L -0.639; A -0.431; E 0.045; I -0.539; C -0.341; F -0.378; D -0.376; N -0.579; G -0.194; S -0.18
C29: L -0.696; W -1.17; N -0.761; M -0.969; Y -0.847; Q -0.563; V -0.969; R -0.888; S -0.749
W30: C -1.09; Q -0.05; E 0.016; G 0.162; F -0.162; M -0.223; V -0.056; I -0.258; H -0.069; S -0.101; K -0.366; P 0.134; D 0.019; L -0.156
N39: H -0.377; C -0.093; F 0.269; Q -0.152; K 0.045; D 0.244; M -0.14; L 0.001; A 0.017; S 0.001; R -0.071; G 0.203; T 0.16
P38: F 0.042; S -0.26; C -0.695; V -0.212; R -0.383; H -0.867; Q -0.163; D -0.553; M -0.364; K -0.379; E 0.184; L -0.178; T -0.204; A -0.114
L33: S -0.623; P -0.464; K -0.184; N -0.432; W -0.48; V -0.414; C -0.412; D -0.235; Q -0.125; I -0.501; Y -0.512; E 0.02; T -0.29; F -0.451; M -0.096; R -0.418; H -0.321
K37: L -0.143; D 0.323; M -0.261; F -0.193; Y -0.059; R -0.156; P -0.056; G 0.125; T 0.117; E 0.219; V 0.078; Q 0.121; S 0.234; W -0.168; C 0.057; I -0.039
C32: T -0.485; E -0.117; A -0.632; N -0.472; L -0.939; H -1.17; M -0.545; G -0.668; W -0.744; V -0.983; D -0.199; Q -0.726; R -0.894; P -0.959; F -0.744; S -0.747; K -0.677
